Non-standard residues stand in square brackets, D forms with d. No end group written: not given here. pY = N[C@@H](Cc1ccc(OP(=O)(O)O)cc1)C(=O)O
Molecular target: GST-fused Grb2 SH2 domain (human, UniProt P62993 60-152)
Experiment: peptide or protein array
Conditions: both partners purified

Sequence of GST-fused Grb2 SH2 domain (P62993 60-152): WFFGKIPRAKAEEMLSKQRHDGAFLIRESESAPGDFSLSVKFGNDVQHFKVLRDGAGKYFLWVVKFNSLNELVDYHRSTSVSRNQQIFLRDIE

Binder: DPS[pY]VNVQNL [Shc1 pTyr317 peptide (DPSpYVNVQNL) on the permutation array]
- binding result: binds

Source: article PMC6208348 (Nature Communications, 2018)
